As usually defined, the Kd is the free concentration of one partner at which half of the binding sites on the other are occupied at equilibrium, for simple one-to-one binding.

Test [1] addresses Rev (Human immunodeficiency virus 1) (UniProt P04325). Conditions: cited from earlier work.
For test [2], the target named is biotinylated HIV-1 Rev with C-terminal Avitag (HIV-1, UniProt P04616). Put plainly: ELISA. (In general: An ELISA detects its analyte on a solid surface through an enzyme-linked reagent.)
Sequence of biotinylated HIV-1 Rev with C-terminal Avitag (P04616 whole entry): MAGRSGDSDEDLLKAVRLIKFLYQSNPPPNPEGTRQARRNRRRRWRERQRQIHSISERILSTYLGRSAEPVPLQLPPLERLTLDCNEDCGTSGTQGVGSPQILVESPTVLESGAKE

Turning to Rev (from UniProt P04325), the Kd in test [1] was 1000 nM.

B1: chimeric rabbit/human Fab SJS-R1 as the selected phage display clone in pC3C (Fab, V domains shown)
VH: QEQLVESGGRLVTPGTALTLTCKVSGFSLSGFWLNWVRQAPGKGLEWVGAIYRGSGSEWYASWAKGRFTISDTSTTVTLKLTSPTTEDTATYFCAADTTDNGYFTIWGPGTLVTVSS
VL: ELVMTQTPSSVSEPVGGTVTIKCQASQSISSWLSWYQQKPGQPPKLLIYDASNLASGVPSRFMGSGSGTEYTLTISGVQREDAATYYCLGGYPAASYRTAFGGGTELEII
As to B1, in test [2], the binding result is given as “binds”.

The values are drawn from PMC2851401 (Journal of molecular biology, 2010).
